US12448442B2, “Treatment of T cell lymphoma” (INNATE PHARMA, priority 2019, dated 2025)

Experiments:
[1] = tested on: RAJI-KIR3DL2 cells; assay: KIR3DL2 surface expression by flow cytometry on RAJI-KIR3DL2 cells; assay type: cell-based; settings: RAJI-KIR3DL2, same experimental conditions
Method: (§1) RAJI-KIR3DL2 (48 hour incubation) (FIG. 2, left hand panel) or Hut 78 ([…]; 24 hour incubation (FIG. 2, right hand panel) were incubated with ascending doses of gemcitabine and oxaliplatin. Median intensity of fluorescence of KIR3DL2 on tumor cell line surface was analyzed by flow cytometry.
(§2) Briefly, Hut78 cells (Sezary Syndrome cell line) or RAJI-KIR3DL2 cells (RAJI B-NHL cell line transfected with human KIR3DL2 were incubated with ascending doses of gemcitabine and oxaliplatin. Median intensity of fluorescence of KIR3DL2 on tumor cell line surface was analyzed by flow cytometry.

[2] = tested on: Hut78 cells; assay: KIR3DL2 surface expression by flow cytometry on Hut78 cells; assay type: cell-based; settings: Hut78 / TCL cells
Method: as §1, §2

[3] = tested on: KIR3DL2-expressing Sézary Syndrome cell line (Hut 78); assay: In vitro cellular cytotoxicity (ADCC) assay with allogeneic NK cells and Hut 78 cells, with increasing concentrations of anti-KIR3DL2 antibody; assay type: cell-based; settings: chemotherapeutic agent added to lacutamab, allogeneic NK cells, FIG. 1
Method: Consequently, we sought to evaluate whether chemotherapeutic agents affect the NK cell-mediated ADCC activity of humanized 2B12 antibody lacutamab having human IgG1 isotype and the VH and VL amino acid sequences shown in SEQ ID NOS: 49 and 44, respectively. Chemotherapeutic agents were added, alone or in combination, to an in vitro cellular cytotoxicity (ADCC) assay with allogeneic NK cells and KIR3DL2-expressing Sézary Syndrome cell line (Hut 78), in presence of increasing concentrations of the anti-KIR3DL2 antibody.

[4] = tested on: RAJI-KIR3DL2; assay type: in vivo; settings: twice a week; antibody 0.3 μg per injection, gemcitabine 50 mg/kg, oxaliplatin 5 mg/kg; FIG. 3
Excerpt: A xenograft model in the CB17-SCID mouse whereby the immunocompromised mouse strain that retains fully functional NK cells and macrophages. […] The B-NHL cell line RAJI was transfected to stably express KIR3DL2 (RAJI-KIR3DL2), and the transfectants were inoculated (5×10^6 cells) to the SCID mice by IV thereby providing a disseminated tumor model. Initially, individual doses of gemcitabine and oxaliplatin were established in this xenograft model.

[5] = target: T1, KIR3DL2 (Homo sapiens, UniProt P43630); parameters: host or cells: tumor cells (not further named); settings: into cells / tumor cells; cited from earlier work
[6] = tested on: refractory SS patients; assay: Clinical trials of single agent IPH4102 in refractory Sézary Syndrome patients; assay type: in vivo, human; settings: repeated administrations of single agent
Excerpt: Antibodies that specifically bind to KIR3DL2 are well known in the art. Innate Pharma for example have described numerous anti-KIR3DL2 antibodies directed to a range of different epitopes on KIR3DL2, e.g., antibodies 15C11, 19H12, 22B2, 18B10, 12B11, 13H1, 10F6, 2B12, 18C6, 9E10, 10G5, 13H1, 5H1, 1E2, 1C3 and 20E9 described in PCT publication nos. WO2014/044681 and WO2014/044686. […] These encouraging results, moreover with few side effects and the ability to deplete malignant KIR3DL2-expressing cells without causing the depletion of healthy KIR3DL2-expressing NK and T cells provides an important advance in treating TCLs.

[7] = target: human KIR3DL1 (Homo sapiens, UniProt P43629); settings: cited from earlier work
[8] = target: T1, KIR3DL2; settings: cited from earlier work

T1 sequence (P43630 22-455): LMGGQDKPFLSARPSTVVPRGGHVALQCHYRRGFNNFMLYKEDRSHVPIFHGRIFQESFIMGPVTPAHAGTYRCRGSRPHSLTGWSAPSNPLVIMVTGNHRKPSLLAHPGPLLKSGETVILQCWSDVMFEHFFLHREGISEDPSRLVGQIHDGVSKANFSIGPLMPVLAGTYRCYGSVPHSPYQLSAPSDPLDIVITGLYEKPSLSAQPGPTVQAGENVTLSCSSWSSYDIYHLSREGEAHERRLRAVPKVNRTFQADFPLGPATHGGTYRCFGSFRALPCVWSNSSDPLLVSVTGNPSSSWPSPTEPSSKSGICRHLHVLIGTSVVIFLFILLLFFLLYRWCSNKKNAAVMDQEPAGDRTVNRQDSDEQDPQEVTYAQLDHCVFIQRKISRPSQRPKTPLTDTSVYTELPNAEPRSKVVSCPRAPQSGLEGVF
Sequence of human KIR3DL1 (P43629 22-444): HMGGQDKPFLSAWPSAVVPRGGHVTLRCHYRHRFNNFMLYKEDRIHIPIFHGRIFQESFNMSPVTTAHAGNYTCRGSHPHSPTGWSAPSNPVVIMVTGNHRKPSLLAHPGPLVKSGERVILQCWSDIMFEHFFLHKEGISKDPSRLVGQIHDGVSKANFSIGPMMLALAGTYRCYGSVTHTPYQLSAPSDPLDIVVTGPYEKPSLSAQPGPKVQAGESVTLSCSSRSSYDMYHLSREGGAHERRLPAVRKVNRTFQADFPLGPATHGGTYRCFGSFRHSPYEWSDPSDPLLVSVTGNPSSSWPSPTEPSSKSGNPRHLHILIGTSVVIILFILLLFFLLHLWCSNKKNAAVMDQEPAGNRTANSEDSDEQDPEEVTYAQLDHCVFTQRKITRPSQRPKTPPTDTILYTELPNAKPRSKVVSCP

Molecule: O=P1(N(CCCl)CCCl)NCCCO1 (stereo not shown) [cyclophosphamide]
- effect on KIR3DL2 expression [1]: did not increase KIR3DL2 expression
- effect on KIR3DL2 expression [2]: did not increase KIR3DL2 expression

Molecule: Nc1ccn([C@@H]2O[C@H](CO)[C@@H](O)C2(F)F)c(=O)n1 [gemcitabine]
- effect on anti-KIR3DL2 antibody-induced ADCC / anti-tumor activity against HUT78 [3]: enhanced

Molecule: O=C1[O][Pt]2([NH][C@@H]3CCCC[C@H]3[NH]2)[O]C1=O [oxaliplatin]
- anti-tumor activity in vivo [4]: very limited, if any, anti-tumor effect
- effect on anti-KIR3DL2 antibody-induced ADCC / anti-tumor activity against HUT78 [3]: enhanced

B1: 19H12: anti-KIR3DL2 antibody, VH SEQ ID NO: 5, VL SEQ ID NO: 6 (antibody, V domains shown)
VH: QIQLVQSGPELKKPGETVKISCKASGYTFTNFGMNWVKQAPGKGLKWMGWINTYTGEPTYADDFKGRFAFSLETSASTAYLQINNLKNEDMATYFCARNGNFGYYFDYWGQGTTLTVSS
VL: DVLMTQTPLSLPVSLGDQASFSCRSSQNIVHSNGNTYLEWYLQKPGQSPSLLIYKVSNRFSGVPDRFSGSGSGTDFTLKITRVEAEDLGVYYCFQGSHVPFTFGSGTKLEIK
modifications: mus musculus
- internalization via KIR3DL2 [5]: capable of being internalized

B2: IPH4102: humanized 2B12 anti-KIR3DL2 antibody, human IgG1, VH SEQ ID NO: 49 and VL SEQ ID NO: 44 (antibody, V domains shown)
VH: QIQLVQSGSELKKPGASVKVSCKASGYTFTTAGMQWVRQAPGQGLEWIGWINSHSGVPKYAEDFKGRFVFSLDTSVSTAYLQISSLKAEDTAVYFCARGGDEGVMDYWGQGTTVTVSS
VL: DIQMTQSPSFLSASVGDRVTITCKASQDVSTAVAWYQQKPGQPPKLLIYWTSTRHTGVPDRFSGSGSGTDYTLTISSLQAEDVAVYYCQQHYSTPWTFGGGTKVEIK
- median duration of response (DoR) [6]: 13.8 months
- median progression-free survival (PFS) [6]: 11.7 months
- overall response rate (ORR) [6]: 42.9%

B3: AZ158: antibody binding human KIR3DL2 and KIR3DL1, VH SEQ ID NO: 3, VL SEQ ID NO: 4 (antibody, V domains shown)
VH: QVQLKESGPGLVAPSQSLSITCTVSGFSLTSFGVHWVRQPPGKGLEWLGVIWAGGSTNYNSALMSRLSISKDNSKSQVFLKMNSLQNDDTAMYYCARGNSNHYVSSFYYFDYWGQGTTLTVSS
VL: DIQMTQSPSSLSASLGGKVTITCKASQDINKYIAWYQHKPGKGPRLLIHYTSTLQPGIPSRFSGSGSGRDYSFSISNLEPEDITTYYCLQYDNLWTFGGGTKLEIK
modifications: mus musculus
- binding to KIR3DL1 [7]: binds
- binding to KIR3DL2 [8]: binds

B4: 12B11: anti-KIR3DL2 antibody, VH SEQ ID NO: 16, VL SEQ ID NO: 17 (antibody, listed as Mus musculus, V domains shown)
VH: QLVQSGPELKNPGETVKISCKASGYTFTNYGMNWVKQAPGKGLKWMGWINTYTGEPTYADDFKGRFAFSLETSASTAYLQINNLKNEDTATYFCAHGPWLAYWGQGTLVTVS
VL: DIKMTQSPSSMYASLGERVTITCKASQDINVYLSWFQQKPGKSPKTLIYRAIRLVDGVPSRFSGSGSGQDYSLTISSLDYEDMGIYYCLQYDELPYTFGGGTKLEIE
- internalization via KIR3DL2 [5]: capable of being internalized

B5: 2B12: anti-KIR3DL2 antibody, VH SEQ ID NO: 32, VL SEQ ID NO: 33 (antibody, listed as Mus musculus, V domains shown)
VH: QIQLVQSGPELKKPGETVRISCKASGYTFTTAGMQWVQKTPGKGLKWIGWINSHSGVPKYAEDFKGRFAFSLETSASTAYLQISTLKNEDTATYFCARGGDEGVMDYWGQGTSVTVS
VL: DIVMTQSHKFMSTSLGDRVSFTCKASQDVSTAVAWYQQKPGQSPKLLIYWTSTRHTGVPDRFTGSGSGTDYTLTISSVQAEDLALYYCQQHYSTPWTFGGGTKLEIK
- internalization via KIR3DL2 [5]: do not induce any KIR3DL2 internalization
